Assay results taken from patent publication US20210277100A1 (SCHOLAR ROCK, published 2021).

Columns and labels:
[1] = target: human proTGFβ1 in complex with GARP expressed on transfected HEK293 or Sw480 cells (human, UniProt Q14392 20-662; P01137 30-390); experiment: cell-based or functional assay
TGFβ2 growth factor = target: T1, TGFβ2 growth factor (UniProt P61812 303-414); experiment: BLI, OctetRed 384 (FIG. 4)
T1 construct: domain: growth factor
T1 sequence (looked up): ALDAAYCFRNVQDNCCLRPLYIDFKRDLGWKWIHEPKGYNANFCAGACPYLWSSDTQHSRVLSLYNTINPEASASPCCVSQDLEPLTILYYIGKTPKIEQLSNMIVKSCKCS
Method: (§1) The binding affinities of the proTGFβ1-GARP complex-selective antibody candidates to proTGFβ1-GARP complexes were measured by biolayer interferometry on an OctetRed 384 (Fortebio, Menlo Park, Calif.). Strepavidin biosensors (Fortebio, Cat. No. 18-5020) were loaded with biotinylated sGARP-proTGFβ1 complex at 20 μg/ml in sodium acetate buffer, pH 5, washed in the same buffer and transferred to wells containing 10 μg/mL proTGFβ1-GARP complex-selective antibody candidates in the same buffer. The dissociation constant was obtained by non-linear fitting of the responses to a steady state algorithm using Octet software (Table 4). Similar affinities were obtained by kinetic fitting.
(§2) To ascertain binding specificity, 4B1C1 and 4B16B9 were screened as above for binding to TGFβ1, TGFβ2, TGFβ3, proTGFβ1-LTBP1, proTGFβ1-LTBP3 and proTGFβ1-LRRC33. As described above, antibodies were tested at 10 μg/ml and antigens at 20 μg/ml and tested under the following conditions.
(§3) proTGFβ1-GARP complex-selective antibody candidates were measured by biolayer interferometry on an OctetRed 384 (Fortebio, Menlo Park, Calif.) for selectivity for proTGFβ1-GARP complex over other protein complexes (FIG. 4).

TGFβ3 growth factor = target: T2, TGFβ3 growth factor (UniProt P10600 301-412); experiment: BLI, OctetRed 384 (FIG. 4)
T2 construct: domain: growth factor
T2 sequence (looked up): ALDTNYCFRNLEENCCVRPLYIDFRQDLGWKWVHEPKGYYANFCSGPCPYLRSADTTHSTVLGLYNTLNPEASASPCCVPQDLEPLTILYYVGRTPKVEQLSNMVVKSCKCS
Method: as §1, §2, §3

TGFβ1 growth factor [2] = target: T3, TGFβ1 growth factor (human, UniProt P01137 279-390); experiment: BLI, OctetRed 384, antigen loaded on biosensor
T3 construct: domain: growth factor; also called TGFb1 (soluble form)
T3 sequence (P01137 279-390 limits assumed): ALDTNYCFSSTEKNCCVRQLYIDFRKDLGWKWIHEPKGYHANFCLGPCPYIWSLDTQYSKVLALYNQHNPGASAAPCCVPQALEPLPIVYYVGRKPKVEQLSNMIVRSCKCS
Method: as §1, §2

hGARP-TGFβ1-LAP = target: T4, hGARP-TGFβ1-LAP (human); experiment: biolayer interferometry (OctetRed 384)
T4 construct: not given
T4 sequence (Q14392 20-627, chain 1 of 2): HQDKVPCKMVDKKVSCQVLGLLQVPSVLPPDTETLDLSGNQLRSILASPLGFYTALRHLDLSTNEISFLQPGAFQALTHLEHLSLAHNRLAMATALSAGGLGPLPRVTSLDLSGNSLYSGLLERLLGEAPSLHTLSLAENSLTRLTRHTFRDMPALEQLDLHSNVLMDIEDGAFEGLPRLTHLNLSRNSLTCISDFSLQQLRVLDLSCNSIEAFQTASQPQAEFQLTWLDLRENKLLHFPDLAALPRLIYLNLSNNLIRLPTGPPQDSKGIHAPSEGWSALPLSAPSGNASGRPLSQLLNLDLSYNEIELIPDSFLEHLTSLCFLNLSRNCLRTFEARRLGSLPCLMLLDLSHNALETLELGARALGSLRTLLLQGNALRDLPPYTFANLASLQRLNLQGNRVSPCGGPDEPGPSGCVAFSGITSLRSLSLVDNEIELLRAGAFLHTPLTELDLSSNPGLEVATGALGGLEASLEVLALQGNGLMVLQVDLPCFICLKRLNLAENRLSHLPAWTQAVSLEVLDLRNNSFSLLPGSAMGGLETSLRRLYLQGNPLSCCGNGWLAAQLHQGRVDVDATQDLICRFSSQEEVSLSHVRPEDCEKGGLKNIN
T4 sequence (P01137 30-390, chain 2 of 2, further chain): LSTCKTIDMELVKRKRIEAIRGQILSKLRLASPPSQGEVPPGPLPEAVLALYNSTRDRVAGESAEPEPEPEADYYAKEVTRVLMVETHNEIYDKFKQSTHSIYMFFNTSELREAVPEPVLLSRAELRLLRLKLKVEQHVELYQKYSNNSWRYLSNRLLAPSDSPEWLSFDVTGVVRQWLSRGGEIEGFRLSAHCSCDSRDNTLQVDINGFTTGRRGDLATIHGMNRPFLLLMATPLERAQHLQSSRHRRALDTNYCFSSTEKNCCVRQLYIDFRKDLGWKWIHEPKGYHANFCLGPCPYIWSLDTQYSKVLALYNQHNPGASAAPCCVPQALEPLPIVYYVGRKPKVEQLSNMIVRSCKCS
Method: as §1, §3

rGARP-proTGFβ1 = target: T5, rGARP-proTGFβ1; experiment: biolayer interferometry (OctetRed 384)
T5 construct: not given
Method: as §1, §3

TGFβ1 growth factor [3] = target: T3, TGFβ1 growth factor; experiment: BLI, OctetRed 384 (FIG. 4)
Method: as §1, §2, §3

Sequence of human proTGFβ1 in complex with GARP expressed on transfected HEK293 or Sw480 cells (Q14392 20-662, chain 1 of 2): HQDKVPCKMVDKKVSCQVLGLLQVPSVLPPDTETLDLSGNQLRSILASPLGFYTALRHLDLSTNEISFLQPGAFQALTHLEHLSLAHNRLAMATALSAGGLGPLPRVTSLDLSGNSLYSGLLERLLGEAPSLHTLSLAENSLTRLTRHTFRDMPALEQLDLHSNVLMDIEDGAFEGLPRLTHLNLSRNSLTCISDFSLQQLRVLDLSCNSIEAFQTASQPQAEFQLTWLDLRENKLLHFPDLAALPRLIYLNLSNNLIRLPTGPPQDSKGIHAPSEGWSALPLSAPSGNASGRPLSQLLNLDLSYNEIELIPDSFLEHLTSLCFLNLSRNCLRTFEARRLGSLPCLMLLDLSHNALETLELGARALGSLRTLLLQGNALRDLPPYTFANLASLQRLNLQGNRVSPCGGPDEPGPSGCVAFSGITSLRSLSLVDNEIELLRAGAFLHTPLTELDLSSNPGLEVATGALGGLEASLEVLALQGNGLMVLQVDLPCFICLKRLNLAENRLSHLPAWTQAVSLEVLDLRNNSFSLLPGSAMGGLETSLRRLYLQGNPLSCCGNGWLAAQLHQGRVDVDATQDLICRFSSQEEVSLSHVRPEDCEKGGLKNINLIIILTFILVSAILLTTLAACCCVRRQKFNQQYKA
Sequence of human proTGFβ1 in complex with GARP expressed on transfected HEK293 or Sw480 cells (P01137 30-390, chain 2 of 2): as the sequence (P01137 30-390, chain 2 of 2, further chain) above

B1: 4B1C1 (antibody, human IgG4 S228P, kappa, V domains shown)
VH: EVQLVQSGGVVVQPGGSLRLSCAASGFTFDDYTMHWVRQAPGKGLEWVSLISWDGGSTYYADSVKGRFTISRDNSKNSLYLQMNSLRTEDTALYYCAKDADDSTFDIWGQGTMVTVSS
VL: ETTLTQSPATLSVSPGERVTLSCRASQSVSRNLAWYQQKPGQPPKLLIYWASTRESGVPDRFSGSGSGTDFTLTISSLQAEDVAVYYCQQYYSVPYTFGQGTKLEIKR
notes: Fully human, from a phage display scFv; also called 4B1Cl; proTGFβ1-GARP complex-selective antibody candidate
With B1 the “IC50 of inhibition of TGFβ1 activation, TMLC reporter cells” value [1] was 178 pM, the binding result (TGFβ2 growth factor) was “no binding” and the binding result (TGFβ3 growth factor) was “no binding”. For the same binder, the binding result (TGFβ1 growth factor [2]) was “no binding”, the Kd (hGARP-TGFβ1-LAP) was 11300 pM and the Kd (rGARP-proTGFβ1) was 187 pM.

B2: 4B16B9 (antibody, human IgG4 S228P, lambda, V domains shown)
VH: QMQLVQSGAEVKKPGSSVKVSCKASGGTFSSYAISWVRQAPGQGLEWMGGIIPMFGTTNYAQKFQGRVTIIADESTSTAYMELRSLRSDDTAVYYCARDREWEPAYGMDVWGQGTTVTVSS
VL: QSALTQPASVSGSPGQSITISCIGTSSDVGGYNYVSWYQQHPGKAPKLMIYDVSNRPSGVSNRFSGSKSGNTASLTISGLQAEDEAMYYCSAYTVSSTWVFGGGTKVTVLG
notes: Fully human, from a phage display scFv; also called proTGFβ1-GARP complex-selective antibody candidate
B2 was tested, and the “IC50 of inhibition of TGFβ1 activation, TMLC reporter cells” value [1] was 1900 pM, the binding result (TGFβ1 growth factor [3]) was “no binding” and the binding result (TGFβ2 growth factor) was “no binding”. For the same binder, the binding result (TGFβ3 growth factor) was “no binding” and the Kd (rGARP-proTGFβ1) was 158 pM.
